# In the RNAGym collection of RNA variant scans (doi:10.7554/elife.80360):
# B1: Twister Ribozyme (parent)
# chain: AACACUGCCAAUGCCGGUCCCAAGCCCGGAUAAAAGUGGAGGGGGCGG
# Variants of: B1
# Test: self-cleavage, relative activity (ratio to wild type); higher = more cleavage; co-transcriptional
row,Variant,self-cleavage
1,C3U C20G,0.0703
2,C3U C20A,0.07
3,A4G A33U,0.858
4,C5A C46G,0.689
5,C3U G13A,0.402
6,A4G A11U,0.996
7,A4G A11C,0.663
8,A4U G44A,0.248
9,A4U G44C,0.105
10,A4U G44U,0.146
11,C5A A23C,0.0937
12,C5A A23G,0.0488
13,C5A A34G,0.41
14,C3U G24A,0.0721
15,A4G C9A,0.698
16,C5A U12C,0.462
17,C5A U12A,0.764
18,C3U A34U,0.314
19,C3U A34G,0.153
20,C5G A10G,1.17
21,C5G A10U,0.69
22,A4C U31G,0.177
23,A4C U31A,0.182
24,C3U A32U,0.402

row,Variant,self-cleavage
1,C3U A32C,0.532
2,C3U A32G,0.369
3,A4C C27A,0.0944
4,A4C C27U,0.112
5,C3U A35G,0.136
6,A4G U6C,0.104
7,A4U G16A,0.0873
8,A4U G17A,0.0705
9,A4U G17U,0.0471
10,C5A U37G,0.671
11,C5A U37A,0.547
12,C5A U37C,0.124
13,C3U G36A,0.115
14,A4U C19A,0.0659
15,C5A C26G,0.0639
16,C5A C26A,0.1
17,C5A C26U,0.0777
18,C5A G36U,0.689
19,C5A G36A,0.583
20,C5A C20U,0.465
21,C5A G41U,0.132
22,C5A G41A,0.107
23,A4C C8U,0.108
24,A4C C8A,0.119

row,Variant,self-cleavage
1,A4G C20G,0.128
2,A4G G47C,0.386
3,C3U G28U,0.325
4,A4C A11U,0.16
5,A4C A11C,0.0104
6,C5A G28A,0.232
7,C5A G28U,0.282
8,A4U U31G,0.161
9,A4U U31A,0.143
10,A4U G39C,0.0848
11,A4U G39U,0.0721
12,C5G A30U,0.883
13,C5G A30G,0.608
14,C3U G39U,0.066
15,C5G,0.85
16,C5A,0.66
17,A4C G38A,0.142
18,A4C G38C,0.61
19,A4C G38U,0.591
20,C3U A30C,0.335
21,C3U A30G,0.422
22,A4G G45C,0.294
23,A4G G45U,0.741
24,C3U A40C,0.0947

row,Variant,self-cleavage
1,A4C G47U,0.121
2,A4U G45U,0.124
3,A4U G45C,0.0951
4,A4U G45A,0.105
5,A4G A34C,0.128
6,A4G A34U,0.499
7,A4U G7A,0.1
8,A4U G7C,0.0628
9,A4G C8U,0.953
10,A4G C8A,0.524
11,A4G A40C,0.0709
12,A4G C25U,0.595
13,A4U G42U,0.0714
14,C5A C27U,0.249
15,C3U A33C,0.476
16,C3U A33U,0.471
17,A4C G17C,0.0696
18,A4G C15U,0.944
19,A4G C15G,0.0751
20,C3U G17U,0.0762
21,C3U G17C,0.0683
22,C3U G38U,0.409
23,A4C C14U,0.257
24,A4C C14A,0.33

row,Variant,self-cleavage
1,A4G C27G,0.0421
2,A4U A40G,0.0581
3,C5A A33C,0.439
4,C5A A33G,0.472
5,A4C U18C,0.0605
6,A4C U18G,0.111
7,A4C U18A,0.0406
8,C3U C21U,0.0611
9,A4U A23U,0.0527
10,A4U A11U,0.193
11,A4U A11C,0.0933
12,A4U A11G,0.184
13,A4G G28C,0.529
14,A4G G42U,0.195
15,A4G G42A,0.289
16,A4C G42A,0.0686
17,A4U G48U,0.147
18,C5A C15A,0.214
19,C5A C15G,0.0768
20,A4C G48A,0.134
21,A4C G48C,0.31
22,A4C C46U,0.163
23,A4C G41A,0.0502
24,C5A G42U,0.138

row,Variant,self-cleavage
1,A4G G48C,1.18
2,A4G G48A,0.955
3,C5A A40G,0.0921
4,C5A G47A,0.523
5,C5A G47C,0.199
6,C3U G42A,0.0772
7,C3U G42U,0.0877
8,C3U G47C,0.233
9,A4U A30C,0.0756
10,A4U A30G,0.176
11,A4C A35G,0.451
12,C5G A33C,0.565
13,C5G A33U,0.662
14,A4U A33C,0.0899
15,A4U A33U,0.0597
16,A4U C26G,0.0523
17,A4U C26U,0.0595
18,A4C G16A,0.0955
19,C5A G16C,0.098
20,C5A G16A,0.301
21,C5A G16U,0.237
22,C5A A35G,0.328
23,C5A A35U,0.508
24,A4U C15A,0.0639

row,Variant,self-cleavage
1,A4C G7U,0.0643
2,A4C G7A,0.0506
3,A4U G36A,0.056
4,A4U G36U,0.0439
5,C3U C46U,0.503
6,C3U C46G,0.526
7,C5A U31C,0.653
8,C5A U31A,0.438
9,C3U G41A,0.117
10,C3U G41C,0.099
11,A4G G41A,0.244
12,A4G G41C,0.181
13,A4G G39U,0.153
14,A4G G39C,0.115
15,A4C G28C,0.0895
16,A4C G28U,0.104
17,C5A G29C,0.279
18,A4C G43C,0.0981
19,C5A C9G,0.0413
20,A4U U37G,0.624
21,A4U U37A,0.7
22,A4U C9A,0.0614
23,A4U C9U,0.0756
24,A4U C27U,0.0803

row,Variant,self-cleavage
1,A4U C27G,0.115
2,C5A A10U,0.39
3,C5A A10G,0.705
4,A4U A22U,0.0795
5,C5A U6A,0.0843
6,C5A U6G,0.154
7,C5A U6C,0.112
8,C5A U18C,0.106
9,C5G A34C,0.117
10,C5G A34G,0.384
11,A4G G7C,0.0363
12,A4G G7A,0.169
13,C5A C25G,0.0605
14,C5A C21U,0.0869
15,C5A C21G,0.113
16,C5A C21A,0.0272
17,A4U C25U,0.0507
18,A4U C25G,0.0782
19,C3U G7C,0.0424
20,C3U G7A,0.0905
21,A4G C26A,0.293
22,A4G C26U,0.252
23,A4G C26G,0.169
24,C5A G45A,0.532

row,Variant,self-cleavage
1,C5A G45C,0.16
2,A4C A33G,0.146
3,A4C A33C,0.108
4,A4C A33U,0.152
5,A4U C20U,0.0245
6,A4U C20G,0.0603
7,C5A G48C,0.53
8,C3U C14U,0.376
9,C3U C14G,0.0572
10,C3U C14A,0.351
11,A4C A22G,0.0686
12,C3U U31G,0.445
13,C3U U31C,0.391
14,C5A G24A,0.0547
15,C5A G24U,0.0619
16,C5G A32G,0.749
17,C5A C8G,0.106
18,C3U C15U,0.335
19,C3U C15G,0.125
20,A4G U12C,0.811
21,A4C A32C,0.101
22,A4U U18G,0.0369
23,A4U U18C,0.027
24,A4U U18A,0.0531

row,Variant,self-cleavage
1,A4G G13C,0.244
2,A4G G13U,0.327
3,C5A A30U,0.498
4,A4C C5U,0.701
5,A4C C5G,0.0446
6,A4G G17C,0.0548
7,A4C G39C,0.0869
8,A4C G39U,0.0723
9,C3U C9G,0.12
10,C3U C9A,0.147
11,A4G C21U,0.118
12,A4U G28A,0.0702
13,A4U G47A,0.0604
14,A4U G47U,0.0997
15,A4C U6G,0.0323
16,A4C U6C,0.0627
17,C5A A11G,0.479
18,C3U C19G,0.106
19,A4C C21U,0.0583
20,A4C C21A,0.105
21,A4C C21G,0.0577
22,C3U G29C,0.277
23,C3U G29U,0.464
24,A4G G36A,0.385

row,Variant,self-cleavage
1,A4C C25A,0.0458
2,A4C C25G,0.0395
3,C3U C26A,0.148
4,A4G A23C,0.0625
5,A4G A23U,0.358
6,C5G A11U,0.665
7,C5G A11G,0.696
8,A4C C20A,0.0653
9,A4C C20G,0.0372
10,A4U G43A,0.0748
11,A4U G43U,0.0514
12,C3U C25G,0.0982
13,C3U C25A,0.0634
14,C3U A23C,0.12
15,A4U G41U,0.0632
16,A4U G41A,0.0938
17,A4G G24A,0.0846
18,A4G G24C,0.0502
19,A4U U6C,0.0522
20,A4U U6G,0.0301
21,C3U G48U,0.562
22,C3U U6G,0.106
23,A4G U18G,0.0583
24,A4G U18C,0.58

row,Variant,self-cleavage
1,A4C C15G,0.0431
2,A4C G44A,0.165
3,A4G A30C,0.736
4,A4G A30U,0.762
5,A4U C5G,0.0771
6,A4U C5U,0.136
7,C5A C19U,0.424
8,C5A C19A,0.0624
9,A4C C26A,0.0425
10,A4U A10G,0.125
11,A4C A30C,0.0841
12,C5A G43C,0.118
13,C5A G17U,0.0729
14,C5A G17A,0.0903
15,A4C A34U,0.0292
16,A4C A34G,0.0947
17,A4C C9G,0.107
18,A4C C9U,0.0772
19,C5A G7U,0.0804
20,C5A G7C,0.0608
21,A4C G36C,0.0766
22,A4C G36A,0.103
23,C5A A32G,0.542
24,A4G A10U,1.04

row,Variant,self-cleavage
1,C5G A22U,0.401
2,C5G A22G,0.137
3,A4G G44A,0.88
4,C3U U18A,0.158
5,C3U U18C,0.215
6,C3U U18G,0.0621
7,C3U U37C,0.172
8,C3U U37G,0.406
9,A4U A34G,0.0772
10,A4C A40U,0.0853
11,A4C A40G,0.0825
12,A4C A40C,0.0698
13,A4U G13A,0.0571
14,A4G A32G,1.05
15,A4U C8A,0.0382
16,C5A C14G,0.0565
17,A4G G38C,0.918
18,A4G G38U,0.947
19,A4G C46G,1.15
20,A4G C46U,0.775
21,A4G U37A,0.796
22,A4G U37G,0.73
23,A4C A10C,0.152
24,A4C A10G,0.334

row,Variant,self-cleavage
1,C3U C8A,0.17
2,C3U C8G,0.0577
3,C3U C8U,0.216
4,A4U G29U,0.094
5,A4U G29C,0.0635
6,C3U G44A,0.382
7,C3U G44U,0.436
8,A4C U12C,0.228
9,C5G A23C,0.0471
10,C5G A23G,0.133
11,C5G A23U,0.136
12,A4G G29C,0.571
13,A4G G29U,0.851
14,A4U A35G,0.0949
15,A4C A23U,0.0688
16,A4C A23C,0.0177
17,A4U G38U,0.138
18,A4U G38C,0.252
19,A4C G29U,0.145
20,A4C G29A,0.168
21,A4C G29C,0.0879
22,A4U G24U,0.0752
